Measured values taken from patent US20210220404A1 (Novartis, published 2021).
Changes are numbered by the printed parent chain. No end group written: not given here.

B1: duCD19.1 anti-CD19 CAR (other)
chain: EIVMTQSPATLSLSPGERATLSCRASQDISKYLNWYQQKPGQAPRLLIYHTSRLHSGIPARFSGSGSGTDYTLTISSLQPEDFAVYFCQQGNTLPYTFGQGTKLEIKGGGGSGGGGSGGGGSQVQLQESGPGLVKPSETLSLTCTVSGVSLPDYGVSWIRQPPGKGLEWIGVIWGSETTYYQSSLKSRVTISKDNSKNQVSLKLSSVTAADTAVYYCAKHYYYGGSYAMDYWGQGTLVTVSSTTTPAPRPPTPAPTIASQPLSLRPEACRPAAGGAVHTRGLDFACDIYIWAPLAGTCGVLLLSLVITLYCKRGRKKLLYIFKQPFMRPVQTTQEEDGCSCRFPEEEEGGCELRVKFSRSADAPAYQQGQNQLYNELNLGRREEYDVLDKRRGRDPEMGGKPRRKNPQEGLYNELQKDKMAEAYSEIGMKGERRRGKGHDGLYQGLSTATKDTYDALHMQALPPR
notes: CAR on transduced primary human T cells; also called CTL119; Mono-duCD19.1
B2: human recombinant (r)BCMA_Fc-AF647 (Fc fusion)
chain: MLQMAGQCSQNEYFDSLLHACIPCQLRCSSNTPPLTCQRYCNASVTNSVKGTNA
modifications: cysteine pairing not given here; also: Alexa Fluor 647 label, Fc fusion tag, unspecified
notes: In-house flow cytometry staining reagent; not shown: Fc part of an in-house reagent
B3: Hy03 BCMA CAR (other)
chain: EVQLVESGGGLVQPGGSLRLSCAASGFTFSGFWMSWVRQAPGKGLEWVANIKQDGSEKYYVDSVRGRFTISRDNAKNSLYLQMNSLRAEDTAVYYCARALDYYGMDVWGQGTTVTVSSGGGGSGGGGSGGGGSGGGGSDIVMTQTPLSLPVTPGEPASISCRSSQSLLDSDDGNTYLDWYLQKPGQSPRLLIYTLSYRASGVPDRFSGSGSGTDFTLKISRVEAEDVGLYYCTQRLEFPSITFGQGTRLEIKTTTPAPRPPTPAPTIASQPLSLRPEACRPAAGGAVHTRGLDFACDIYIWAPLAGTCGVLLLSLVITLYCKRGRKKLLYIFKQPFMRPVQTTQEEDGCSCRFPEEEEGGCELRVKFSRSADAPAYQQGQNQLYNELNLGRREEYDVLDKRRGRDPEMGGKPRRKNPQEGLYNELQKDKMAEAYSEIGMKGERRRGKGHDGLYQGLSTATKDTYDALHMQALPPR
notes: CAR on transduced JNL cells or primary human T cells
B4: B61-10 BCMA CAR (other)
chain: QVQLVESGGGVVQPGRSLRLSCAASGFTFSSYGMHWVRQAPGKGLEWVAVISYKGSNKYYADSVKGRFTISRDNSKNTLYLQMNSLRAEDTAVYYCGGSGYALHDDYYGLDVWGQGTLVTVSSGGGGSGGGGSGGGGSGGGGSQSALTQPASVSGSPGQSITISCTGTSSDVGGYNYVSWYQQHPGKAPKLMIYEVSNRLRGVSNRFSGSKSGNTASLTISGLQAEDEADYYCSSYTSSSTLYVFGSGTKVTVLTTTPAPRPPTPAPTIASQPLSLRPEACRPAAGGAVHTRGLDFACDIYIWAPLAGTCGVLLLSLVITLYCKRGRKKLLYIFKQPFMRPVQTTQEEDGCSCRFPEEEEGGCELRVKFSRSADAPAYQQGQNQLYNELNLGRREEYDVLDKRRGRDPEMGGKPRRKNPQEGLYNELQKDKMAEAYSEIGMKGERRRGKGHDGLYQGLSTATKDTYDALHMQALPPR
notes: as for B3
B5: B61-02 BCMA CAR (other)
chain: B4 chain with T241A
notes: as for B3
B6: PI61 BCMA CAR (other)
chain: QVQLQESGGGVVQPGRSLRLSCAASGFTFSSYGMHWVRQAPGKGLEWVAVISYDGSNKYYADSVKGRFTISRDNSKNTLYLQMNSLRAEDTAVYYCGGSGYALHDDYYGLDVWGQGTLVTVSSGGGGSGGGGSGGGGSQSALTQPASVSGSPGQSITISCTGTSSDVGGYNYVSWYQQHPGKAPKLMIYDVSNRPSGVSNRFSGSKSGNTASLTISGLQAEDEADYYCSSYTSSSTLYVFGSGTKVTVLTTTPAPRPPTPAPTIASQPLSLRPEACRPAAGGAVHTRGLDFACDIYIWAPLAGTCGVLLLSLVITLYCKRGRKKLLYIFKQPFMRPVQTTQEEDGCSCRFPEEEEGGCELRVKFSRSADAPAYQQGQNQLYNELNLGRREEYDVLDKRRGRDPEMGGKPRRKNPQEGLYNELQKDKMAEAYSEIGMKGERRRGKGHDGLYQGLSTATKDTYDALHMQALPPR
notes: CAR on transduced JNL cells or primary human T cells; also called P161; Mono PI61
B7: Hy52 BCMA CAR (other)
chain: EVQLVESGGGLVKPGGSLRLSCAASGFTFSSFRMNWVRQAPGKGLEWVSSISSSSSYIYYADSVKGRFTISRDNAKNSLYLQMNSLRAEDTAVYYCARWLSYYGMDVWGQGTTVTVSSGGGGSGGGGSGGGGSGGGGSDIVMTQTPLSLPVTPGEPASISCRSSQSLLDSDDGNTYLDWYLQKPGQSPQLLIYTLSFRASGVPDRFSGSGSGTDFTLKIRRVEAEDVGVYYCMQRIGFPITFGQGTRLEIKTTTPAPRPPTPAPTIASQPLSLRPEACRPAAGGAVHTRGLDFACDIYIWAPLAGTCGVLLLSLVITLYCKRGRKKLLYIFKQPFMRPVQTTQEEDGCSCRFPEEEEGGCELRVKFSRSADAPAYQQGQNQLYNELNLGRREEYDVLDKRRGRDPEMGGKPRRKNPQEGLYNELQKDKMAEAYSEIGMKGERRRGKGHDGLYQGLSTATKDTYDALHMQALPPR
notes: as for B3

Assays:
[1] = target: B2; test: flow cytometry, T cells with construct 244, day 8, rBCMA-Fc AF647 stain
Method: BCMA-CD19 dual or monoBCMA or monoCD19 CART cells were generated using human primary T cells (CD4+ and CD8+ lymphocytes) obtained by negative selection or positive selection via Prodigy upon processing blood from healthy apheresed donors. Before transduction, the T cells were activated using CD3/CD28 beads (Dynabeads® Human T-Expander CD3/CD28, Thermo Fisher Scientific) at a ratio of 1:3 (T cell to bead) in T cell medium (RPMI1640, 10% heat-inactivated fetal calf serum (FCS), 2 mM L-glutamine, 1× Penicillin/Streptomycin, 100 μM non-essential amino acids, 1 mM Sodium Pyruvate, 10 mM Hepes, and 55 μM 2-mercaptoethanol). The cells were cultured at a density of 0.5×10⁶/mL medium per well in a 24-well plate at 37° C., 5% CO₂. After 24 hours, when T cells were blasting, they were transduced with viruses at a multiplicity of infection (MOI) of 5 based on the upstream CAR titer. T cells began to divide in a logarithmic growth pattern, which was monitored by measuring the cell counts per mL, and T cells were diluted in fresh medium every two days and de-beaded and harvested for further analyses on day 8 or beyond depending on the size of the cells. Aliquots of T cells were stained to measure CAR expression by flow cytometry on day 7 or 8 on a FACS Fortessa (BD).

[2] = target: T1, anti-BCMA CAR arm of duCD19.1-P2A-duBCMA.4 (construct 234); test: flow cytometry, T cells with construct 234, day 8, MFI of rBCMA-Fc stain
T1 construct: also called c234; duCD19.1-duBCMA.4

245 = target: T2, 245; test: flow cytometry, T cells with construct 245, day 8, MFI of rBCMA-Fc stain
T2 construct: also called c245; Mono-duBCMA.4

[3] = target: B2; test: flow cytometry; rBCMA_Fc-AF647 staining of CAR-transduced primary human T cells, day 5 of culture (reported by the filing as CAR expression)
Method: (§1) BCMA CAR T cells were generated by starting with blood from healthy apheresed donors whose T cells (CD4+ and CD8+ lymphocytes) were obtained by negative selection for CD3+ T cells. These cells were activated by the addition of CD3/CD28 beads (Dynabeads® Human T-Expander CD3/CD28, Thermo Fisher Scientific) at a ratio of 1:3 (T cell to bead) in T cell medium (RPMI1640, 10% heat-inactivated fetal calf serum (FCS), 2 mM L-glutamine, 1× Penicillin/Streptomycin, 100 μM non-essential amino acids, 1 mM Sodium Pyruvate, 10 mM Hepes, and 55 μM 2-mercaptoethanol). T cells were cultured at 0.5×10⁶ T cells in 1 mL medium per well of a 24-well plate at 37° C., 5% CO₂. After 24 hours, when T cells were blasting, T cells were transduced with BCMA CAR virus at a multiplicity of infection (MOI) of 5. […] Aliquots of T cells were stained to measure CAR expression by flow cytometry at day 5 and 9 on a FACS Fortessa (BD). All BCMA CAR T cells were produced under research grade (i.e., not clinical grade) manufacturing conditions.
(§2) The BCMA-CAR surface expression and its stability was assessed by measuring CAR % and MFI (mean fluorescence intensity) at day 5 and day 9 using flow cytometry analyses of rBCMA_Fc-AF647 stained cells (FIG. 2 and Table 27).

[4] = target: B2; test: flow cytometry; rBCMA_Fc-AF647 staining of CAR-transduced primary human T cells, day 9 of culture (reported by the filing as CAR expression)
Method: as §1, §2

Binder | binding result [1] | binding result [2] | binding result 245 | CAR MFI on T cells (Day 5) [3] [MFI] | CAR MFI on T cells (Day 9) [4] [MFI]
B1 | no binding | – | – | – | –
B2 | – | binds | binds | – | –
B3 | – | – | – | 9460 | 929
B4 | – | – | – | 27300 | 3290
B5 | – | – | – | 29100 | 3470
B6 | – | – | – | 24400 | 2100
B7 | – | – | – | 33700 | 2860
